Measurements reported in patent US20130012436A1 (Bristol-Myers Squibb, published 2013).
Positions count from the first letter of the chain named.

B1: 1490B03 (designed binder)
chain: MGVSDVPRDLEVVAATPTSLLISWGHYPLHVRYYRITYGETGGNSPVQEFTVPSRKYTATISGLKPGVDYTITVYAVTYYKEANYREIPISINYRTEIDKPSQHHHHHH
notes: captured by anti-His mAb
B2: 1490H05 (designed binder)
chain: B1 chain with S54M, K56Q, Y57H, K81A, E82Q, A83E, R86K
notes: captured by anti-His mAb
B3: 1550 E06 (designed binder)
chain: B1 chain with L29M, S54P, R55P, K56R, Y57H, K81A, E82Q, A83E, R86K
notes: captured by anti-His mAb
B4: 1571G04 (designed binder)
chain: B1 chain with S54P, K56S, Y57H, K81A, E82Q, A83E, R86K
notes: captured by anti-His mAb
B5: 1571G06 (designed binder)
chain: B1 chain with V31L, S54R, R55T, N84D, R86S, E87Q
notes: captured by anti-His mAb
B6: 1571H03 (designed binder)
chain: B1 chain with S54N, K56V, K81A, E82Q, A83E, N84E, R86H, E87I
notes: captured by anti-His mAb
B7: 1572C09 (designed binder)
chain: B1 chain with L29M, V31I, S54T, R55P, Y57H, K81N, N84D, R86S, E87Q
notes: captured by anti-His mAb
B8: 1572F05 (designed binder)
chain: B1 chain with V31I, S54R, R55Q, K81N, N84D, R86S, E87Q
notes: captured by anti-His mAb
B9: 1572G06 (designed binder)
chain: B1 chain with S54R, R55Y, K81A, E82Q, A83E, R86K
notes: captured by anti-His mAb
B10: 1572H05 (designed binder)
chain: B1 chain with V31I, S54R, R55S, K81E, E82Q, A83V, N84E
notes: captured by anti-His mAb
B11: ATI001014 (designed binder)
chain: MGVSDVPRDLEVVAATPTSLLISWGHYPLHVRYYRITYGETGGNSPVQEFTVPPRSHTATISGLKPGVDYTITVYAVTYYAQENYKEIPISINYRTGSGC
modifications: pegylated at the C-terminal GSGC linker (Cys)
notes: not shown: his-tag
B12: ATI000934 (designed binder)
chain: MGVSDVPRDLEVVAATPTSLLISWGHYPLHLRYYRITYGETGGNSPVQEFTVPRTKYTATISGLKPGVDYTITVYAVTYYKEADYSQIPISINYRTEIDKPCQ
modifications: pegylated at the C-terminal EIDKPCQ (Cys)
notes: also called ATI 934; not shown: his-tag
B13: ATI001047 (designed binder)
chain: B11 chain
modifications: pegylated at the C-terminal GSGC linker (Cys)
B14: SABA2.1 (designed binder)
chain: MGVSDVPRDLEVVAATPTSLLISWPKYDKTGHYYRITYGETGGNSPVQEFTVPTRQTTATISGLKPGVDYTITVYAVSKDDYYPHEHRPISINYRTEIDKPSQHHHHHH
B15: SABA3.1 (designed binder)
chain: MGVSDVPRDLEVVAATPTSLLISWSNDGPGLSYYRITYGETGGNSPVQEFTVPSSQTTATISGLKPGVDYTITVYAVSYYTKKAYSAGPISINYRTEIDKPSQHHHHHH
B16: SABA4.1 (designed binder)
chain: MGVSDVPRDLEMVAATPTSLLISWEDDSYYSRYYRITYGETGGNSPVQEFTVPSDLYTATISGLKPGVDYTITVYAVTYDVTDLIMHEPISINYRTEIDKPSQHHHHHH
B17: SABA1.1 (designed binder)
chain: MGVSDVPRDLEVVAATPTSLLISWHSYYEQNSYYRITYGETGGNSPVQEFTVPYSQTTATISGLKPGVDYTITVYAVYGSKYYYPISINYRTEIDKPSQHHHHHH

How the values were obtained:
[1] = target: T1, human IL-23 (human, UniProt Q9NPF7 20-189; P29460 23-328); assay: cell-based or functional assay
T1 sequence (looked up) 1: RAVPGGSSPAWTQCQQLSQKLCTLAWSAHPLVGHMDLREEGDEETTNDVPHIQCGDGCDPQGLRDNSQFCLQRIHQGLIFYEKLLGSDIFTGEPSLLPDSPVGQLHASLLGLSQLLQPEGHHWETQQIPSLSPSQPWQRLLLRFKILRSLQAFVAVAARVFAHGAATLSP
T1 sequence (looked up) 2: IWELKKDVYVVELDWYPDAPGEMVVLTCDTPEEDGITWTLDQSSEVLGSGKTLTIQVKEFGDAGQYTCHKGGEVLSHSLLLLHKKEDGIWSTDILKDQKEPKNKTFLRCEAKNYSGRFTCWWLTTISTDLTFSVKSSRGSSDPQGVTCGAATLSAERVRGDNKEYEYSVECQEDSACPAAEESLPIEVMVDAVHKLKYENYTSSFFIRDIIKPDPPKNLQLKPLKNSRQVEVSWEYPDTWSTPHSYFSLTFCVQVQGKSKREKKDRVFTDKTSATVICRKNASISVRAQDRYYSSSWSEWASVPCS

[2] = target: T1, human IL-23; assay: cell-based or functional assay; remark: listed apart in the source
[3] = target: T1, human IL-23; assay: SPR, Adnectin captured by anti-His mAb, IL-23 injected
Description: All surface plasmon experiments were conducted in HBS-EP (10 mM Hepes 150 mM NaCl 3 mM EDTA 0.05% Surfactant P20) at 25° C. IL-23 was injected over anti-His mAb captured Adnectins for 2 minutes followed by a 10 minute dissociation phase. Evaluation of the binding specificity was completed using Biacore T100 evaluation software. Additional detailed methods are described in Example 4.

[4] = target: T1, human IL-23; assay: SPR (ProteOn XPR), human IL-23 directly immobilized, 25 C
Description: The binding characteristics were characterized by Surface Plasmon Resonance (SPR). Human IL-23 was immobilized at two to four levels in one dimension of a ProteOn XPR (Bio-Rad) chip surfaces and exposed to 6 different concentrations of anti-IL-23 adnectins in the other dimension of the same SPR chip surface. This allowed kinetic determination in the absence of regeneration. Duplicate chips were used for kinetic determinations at 25° C. and 37° C. Evaluation of the kinetic parameters was performed using the Langmuir interaction model and constant parameter fitting with the ProteOn Manager software.
Even at 37° C. the off rates were close to the limit of detection for SPR technologies so it is possible that the reported dissociation constant measurements are under-estimates.

[5] = target: T1, human IL-23; assay: KinExA, solution phase, adnectin titrated, unbound IL-23 captured on non-PEGylated ATI001045 matrix
Description: The solution affinity of ATI001045 and ATI001047 for human IL-23 was also measured using an alternate format in the KinExA. Duplicate titrations of adnectins were performed for each of three (ATI001045) or single (ATI001047) concentrations of human IL-23 (quadruplicate for the lowest concentration). The relative unbound human IL-23 concentration was measured by capture on a non-PEGylated ATI001045 solid matrix followed by detection with a fluorescently labeled antibody that recognizes the p40 subunit of hIL-23.

[6] = target: T2, murine serum albumin (mouse, UniProt P07724 25-608); assay: SPR, albumin captured on CM5 chip
T2 construct: also called MuSA; mouse serum albumin
Description: (§1) The kinetics of selected SABA clones purified from HTPP and/or midscaled material were determined by capturing the respective serum albumin (HSA/RhSA/MuSA) on the surface of a Biasensor CM5 chip and flowing a concentration series of SABAs over both the reference flow cell and the captured albumins. In addition, binding to albumin was carried out under various pH conditions ranging from pH 5.5 to pH 7.4. […] SABA1.1 fits biochemical criteria for pH resistance and affinity/kinetics down to pH 5.5.

[7] = target: T3, human serum albumin (human, UniProt P02768 25-609); assay: SPR (Biacore), albumin captured on CM5 chip, SABA flowed
T3 construct: also called HSA
T3 sequence (P02768 25-609 limits assumed): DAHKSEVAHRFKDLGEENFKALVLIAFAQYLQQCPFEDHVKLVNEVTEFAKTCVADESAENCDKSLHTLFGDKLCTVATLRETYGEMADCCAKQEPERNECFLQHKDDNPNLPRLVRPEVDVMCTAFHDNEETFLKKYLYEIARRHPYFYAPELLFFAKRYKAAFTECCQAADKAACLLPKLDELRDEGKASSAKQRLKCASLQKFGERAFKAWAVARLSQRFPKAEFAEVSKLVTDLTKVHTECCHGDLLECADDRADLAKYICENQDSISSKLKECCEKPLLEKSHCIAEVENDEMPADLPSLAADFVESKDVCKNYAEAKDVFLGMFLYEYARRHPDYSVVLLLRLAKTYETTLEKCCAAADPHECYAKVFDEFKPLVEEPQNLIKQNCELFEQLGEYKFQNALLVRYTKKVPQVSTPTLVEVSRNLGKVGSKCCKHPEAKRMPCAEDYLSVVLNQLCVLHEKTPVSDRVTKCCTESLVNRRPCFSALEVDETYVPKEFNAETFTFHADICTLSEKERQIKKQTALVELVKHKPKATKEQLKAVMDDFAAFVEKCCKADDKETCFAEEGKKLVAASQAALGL
Description: as §1, with “5.5. […]” for “5.5.”

[8] = target: T4, rhesus serum albumin (rhesus, UniProt Q28522 17-600); assay: as above
T4 construct: also called RhSA
T4 sequence (Q28522 17-600 limits assumed): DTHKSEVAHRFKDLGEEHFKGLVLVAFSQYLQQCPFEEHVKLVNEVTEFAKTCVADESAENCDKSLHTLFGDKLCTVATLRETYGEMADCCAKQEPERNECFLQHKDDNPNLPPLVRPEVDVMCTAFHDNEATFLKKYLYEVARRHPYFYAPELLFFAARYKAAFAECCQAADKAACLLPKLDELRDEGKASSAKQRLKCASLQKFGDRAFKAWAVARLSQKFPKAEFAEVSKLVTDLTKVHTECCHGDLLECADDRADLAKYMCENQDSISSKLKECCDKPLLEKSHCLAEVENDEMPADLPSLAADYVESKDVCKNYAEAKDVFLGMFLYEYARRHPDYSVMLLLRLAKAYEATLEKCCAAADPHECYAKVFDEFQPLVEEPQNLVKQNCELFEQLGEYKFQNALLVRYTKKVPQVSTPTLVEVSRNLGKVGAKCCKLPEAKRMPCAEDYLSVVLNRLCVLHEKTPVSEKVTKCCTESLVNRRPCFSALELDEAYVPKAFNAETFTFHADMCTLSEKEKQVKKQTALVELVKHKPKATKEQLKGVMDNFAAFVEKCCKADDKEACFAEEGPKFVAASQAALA
Description: as §1, with “5.5. […]” for “5.5.”

| Binder | IL-17 EC50 [1] [nM] | IL-22 EC50 [1] [nM] | Kit 225 pSTAT3 IC50 (nM) [2] [nM] | kon [3] [M⁻¹ s⁻¹] | Kd [3] [nM] | koff [3] [s⁻¹] | also measured |
| --- | --- | --- | --- | --- | --- | --- | --- |
| B1 | 1.4 | 1.7 | 0.3 | 153000 | – | – | PBMNC pSTAT3 IC50 (nM) [1]: 0.09 nM |
| B2 | 1.8 | 2.9 | 0.4 | 156000 | 2.1 | 0.000322 | – |
| B3 | 1.5 | 2.1 | 0.4 | 55400 | 2.1 | 0.000116 | PBMNC pSTAT3 IC50 (nM) [1]: 1.15 nM |
| B4 | 1.4 | 1.3 | 0.1 | 170000 | 2.1 | 0.000361 | PBMNC pSTAT3 IC50 (nM) [1]: 0.23 nM; Kd [4]: 0.2 nM; koff [4]: 1.2e-05 s⁻¹; kon [4]: 57000 M⁻¹ s⁻¹ |
| B5 | 3.5 | 5.1 | 0.3 | 131000 | 1.81 | 0.000238 | PBMNC pSTAT3 IC50 (nM) [1]: 0.93 nM |
| B6 | 2.9 | 2.3 | 0.4 | 118000 | 3.4 | 0.000395 | – |
| B7 | 7.9 | 5.3 | 0.5 | 60700 | – | – | – |
| B8 | – | – | 3 | 132000 | 2.2 | 0.000285 | – |
| B9 | 1.6 | 1.9 | 0.05 | 105000 | – | – | PBMNC pSTAT3 IC50 (nM) [1]: 0.21 nM |
| B10 | – | – | 0.01 | 375000 | 0.61 | 0.00023 | – |
| B11 | – | – | – | – | – | – | Kd [4]: 1.8 nM; koff [4]: 1.7e-05 s⁻¹; kon [4]: 9400 M⁻¹ s⁻¹ |
| B12 | – | – | – | – | – | – | Kd [4]: 1.9 nM; koff [4]: 1.8e-05 s⁻¹; kon [4]: 9400 M⁻¹ s⁻¹ |
| B13 | – | – | – | – | – | – | Kd [4]: 1.6 nM; koff [4]: 2e-05 s⁻¹; kon [4]: 13000 M⁻¹ s⁻¹; Kd [5]: 0.0363 nM |
| B14 | – | – | – | – | – | – | binding result [6]: no binding; Kd [7]: 33.8 nM; koff [7]: 0.000171 s⁻¹; Kd [8]: 63.6 nM; koff [8]: 0.000442 s⁻¹ |
| B15 | – | – | – | – | – | – | binding result [6]: no binding; Kd [7]: 863 nM; koff [7]: 0.0682 s⁻¹; Kd [8]: 431 nM; koff [8]: 0.0337 s⁻¹ |
| B16 | – | – | – | – | – | – | binding result [6]: no binding; Kd [7]: 412 nM; koff [7]: 0.000782 s⁻¹; Kd [8]: > 1000 nM; koff [8]: 0.00383 s⁻¹ |
| B17 | – | – | – | – | – | – | binding result [6]: no binding; Kd [7]: 47.2 nM; koff [7]: 0.000457 s⁻¹; Kd [8]: 778 nM; koff [8]: 0.00545 s⁻¹ |
